Data reported in the supplement of paper PMC9732359.
± gives the uncertainty stated by the source.

Assay: protein stability index of a GFP-peptide fusion (yeast GPS) (PSI 1-4); higher = more stable; sorted into four equal gates, so the index is relative within each strain
Summary of the method: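 Each library plasmid carries Cherry plus GFP with a tiled 17-residue yeast protein peptide fused downstream, and the pooled library was carried in yeast. Mid-log cultures in leucine-free medium were sorted into four equal gates by GFP/Cherry ratio. Reads from Illumina sequencing of PCR-amplified plasmids from each gate were assigned to strains by barcodes. Per peptide, the protein stability index was computed as the summed products of gate read frequency and gate number.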

| Sequence | protein stability index (doa10∆) | protein stability index (pdr5∆) | protein stability index (san1∆) | protein stability index (ubr1∆) |
| --- | --- | --- | --- | --- |
| PHIIAVACLFITISIHG [SSN8] | 1.17 ± 0.055 | 1.3 ± 0.049 | 1.34 ± 0.11 | 1.47 ± 0.062 |
| INSSNEALVQAFAFCIP [YCG1] | 2.18 ± 0.055 | 2.31 ± 0.051 | 2.49 ± 0.059 | 2.09 ± 0.041 |
| LFNKPPSTNAQNVNVPS [YOR098C/NUP1] | 3.15 ± 0.056 | 3.05 ± 0.051 | 3.03 ± 0.046 | 3.12 ± 0.04 |
| GYLIQVLLTFLQDELHK [YCS4] | 2.97 ± 0.1 | 2.02 ± 0.088 | 2.01 ± 0.12 | 3.24 ± 0.096 |
| SAIRKCVRVQLIKNGKK [RPS23A] | 2.91 ± 0.081 | 3.02 ± 0.069 | 2.45 ± 0.12 | 3.19 ± 0.095 |
| ISNINIPISSETTIDDL [SMC1] | – | 2.69 ± 0.17 | – | 1.85 ± 0.071 |
| NKQIEILTDLVNYRHFK [ITC1] | 2.93 ± 0.042 | 2.99 ± 0.036 | 3.03 ± 0.043 | 2.75 ± 0.036 |
| AGVVQDIGSDPTLPRSD [RPB9] | 2.83 ± 0.078 | 3.2 ± 0.093 | 2.9 ± 0.061 | 2.94 ± 0.047 |
| QNSYADKVTSQAVNNLI [RPP1] | 1.82 ± 0.047 | 1.93 ± 0.09 | 1.68 ± 0.099 | 2.11 ± 0.068 |
| LGHTKAALGEVASMELK [SIR2] | 2.79 ± 0.085 | 2.96 ± 0.077 | 3.23 ± 0.064 | 2.98 ± 0.12 |
| NFALTTLIDLVKHSPGA [ECM29] | 1.61 ± 0.11 | 1.79 ± 0.071 | 1.49 ± 0.15 | 2.13 ± 0.062 |
| EQHNLVKKGPVRLPTKV [RPS20] | 2.45 ± 0.097 | 2.61 ± 0.16 | 2.65 ± 0.063 | 2.64 ± 0.075 |
| GCGTVKRFNIGADPNYR [RPR2] | 3.15 ± 0.12 | 3.36 ± 0.092 | 3.33 ± 0.09 | 3.46 ± 0.068 |
| AHIAKNLINLSIGASIA [YCS4] | 1.34 ± 0.068 | 1.37 ± 0.072 | 1.94 ± 0.17 | 1.78 ± 0.057 |
| DGNNANYIYAGYENGML [RPN14] | 2.73 ± 0.1 | 2.75 ± 0.094 | 2.79 ± 0.083 | 2.96 ± 0.069 |
| HGQLKLSIQYMIQKVME [RPN5] | 2.17 ± 0.1 | 2.73 ± 0.081 | 2.04 ± 0.15 | 2.84 ± 0.085 |
| ERKKSIGSQRGRRLSML [DSN1] | 3.18 ± 0.11 | 2.53 ± 0.087 | 3.13 ± 0.098 | 2.92 ± 0.093 |
| QSLGLDDLQKFNGIENQ [ISW2] | 2.77 ± 0.1 | 2.73 ± 0.082 | 2.44 ± 0.07 | 2.69 ± 0.043 |
| LRKLKKMNNKPERFMVF [RPC53] | 3.19 ± 0.099 | 3.35 ± 0.14 | 3.03 ± 0.099 | 3.18 ± 0.14 |
| NNSTSNANTVFSERAAM [SWI1] | 2.63 ± 0.06 | 3.27 ± 0.097 | 2.97 ± 0.062 | 3.24 ± 0.089 |
| QQQQDLQQQQQVVTTVA [SNF6] | 1.55 ± 0.097 | 1.87 ± 0.083 | 1.87 ± 0.23 | 1.54 ± 0.092 |
| SGSLFGSNNAQTSRGLF [YGL172W/NUP49] | 3.03 ± 0.073 | 3.01 ± 0.06 | 2.95 ± 0.047 | 2.84 ± 0.064 |
| NNEKVVQYLRSVQDLGG [YML031W/NDC1] | 3.1 ± 0.2 | 3.04 ± 0.27 | 3.44 ± 0.19 | 3.61 ± 0.24 |
| TEYRGTLVSTDNYFNLQ [SMX3] | 1.83 ± 0.038 | 2.65 ± 0.046 | 2.4 ± 0.059 | 2.23 ± 0.041 |
| KTPNRSSTPKFTKKPVT [SIR4] | 2.77 ± 0.082 | 2.81 ± 0.082 | 2.91 ± 0.056 | 2.94 ± 0.054 |
| EYWAQRKKKFVLDVDPK [ISW2] | 3.08 ± 0.094 | 2.48 ± 0.26 | 3.03 ± 0.21 | 3.28 ± 0.21 |
| TLELESFLEGSKALNSI [RGR1] | 2.54 ± 0.066 | 2.16 ± 0.067 | 3.13 ± 0.066 | 2.9 ± 0.078 |

| Sequence | protein stability index (doa10∆) | protein stability index (pdr5∆) | protein stability index (san1∆) | protein stability index (ubr1∆) |
| --- | --- | --- | --- | --- |
| EREEAEKKRAEQENMRK [MED2] | – | – | 2.75 ± 0.28 | – |
| FLELTRRADVKTATVKI [RPL38] | 1.67 ± 0.05 | 1.77 ± 0.041 | 2.02 ± 0.077 | 1.2 ± 0.042 |
| DGTEYVLSSVREPDFWV [MED6] | 3.49 ± 0.13 | – | – | 2.67 ± 0.12 |
| SLAKSSALWSSRKGIAF [ECM29] | 1.9 ± 0.069 | 1.88 ± 0.14 | 1.83 ± 0.12 | 1.59 ± 0.15 |
| KKTKFLSPSGHKTFLVA [RPL32] | – | – | 1.44 ± 0.27 | – |
| HVKRITKIAQSQTMAET [ECM29] | 2.33 ± 0.057 | 2.46 ± 0.036 | 2.02 ± 0.061 | 2.07 ± 0.033 |
| EVYNVIASDGSYVNYRH [RPO21] | 3.41 ± 0.11 | 3.58 ± 0.085 | 2.88 ± 0.12 | 3.08 ± 0.091 |
| WYIEKVIRIPMQENDKI [CSI1] | 3.05 ± 0.14 | 2.78 ± 0.1 | – | 3.02 ± 0.14 |
| AGKADTSIRLEGDELEN [SRB4] | 2.67 ± 0.089 | 2.97 ± 0.12 | 2.91 ± 0.088 | 3.25 ± 0.077 |
| NILWAIYNSASKASMQK [YCS4] | 1.66 ± 0.13 | 2.11 ± 0.13 | 1.58 ± 0.22 | 2.18 ± 0.077 |
| IVNGQTFSYVDSSLQPE [YMR129W/POM152] | 2.47 ± 0.05 | 2.67 ± 0.059 | 2.62 ± 0.052 | 2.06 ± 0.042 |
| GSVSEETELFEPGVLNT [ECM29] | 3.28 ± 0.16 | 3 ± 0.087 | 3.07 ± 0.096 | 2.67 ± 0.083 |
| RKEPPATVEECVKLTVR [PRE6] | 1.45 ± 0.06 | 1.67 ± 0.074 | 1.7 ± 0.2 | 1.43 ± 0.055 |
| ENYSAMIFETIVDGKLK [FAS1] | – | 3.24 ± 0.22 | 2.98 ± 0.13 | 3.09 ± 0.16 |
| ESSKALADSLDRCVDPE [DIS3] | 2.75 ± 0.084 | 2.27 ± 0.076 | 2.29 ± 0.21 | 2.38 ± 0.19 |
| LSQPVSASKHEYSDNFP [SIR4] | 2.24 ± 0.084 | 2.34 ± 0.046 | 2.82 ± 0.071 | 2.89 ± 0.046 |
| MLSAHNIIESIANFSRA [YJR042W/NUP85] | 2.31 ± 0.074 | 2.43 ± 0.063 | 2.87 ± 0.048 | 2.48 ± 0.036 |
| LQRQQRKSKLNLDNLQK [POP4] | 2.72 ± 0.077 | 3.22 ± 0.2 | 3.09 ± 0.064 | 2.92 ± 0.15 |
| YYKNFHNSVKRYQIMLP [SNM1] | 1.12 ± 0.042 | 1.36 ± 0.059 | 1.33 ± 0.11 | 1.47 ± 0.05 |
| DHAIVTSPTMPDYYVSI [RPT2] | 2.62 ± 0.11 | 2.67 ± 0.17 | 2.58 ± 0.063 | 2.86 ± 0.12 |
| YKMVQEQLSKQRDLYKR [SMC2] | 3.1 ± 0.097 | 3.03 ± 0.087 | 2.45 ± 0.16 | 3.09 ± 0.063 |
| GNAPATPSSDQNPLPTR [SOH1] | 3.44 ± 0.13 | 2.98 ± 0.065 | 2.63 ± 0.077 | 3.17 ± 0.067 |
| KIRITLTSTKVKQLENV [RPS20] | 1.77 ± 0.076 | 2.11 ± 0.12 | 1.94 ± 0.11 | 2.25 ± 0.068 |
| RLRTLCRDSDDHKRFIV [DIS3] | 2.68 ± 0.2 | 2.75 ± 0.13 | 2.2 ± 0.27 | 2.95 ± 0.048 |
| FTNLGIIVQYLTKFRQK [RGR1] | 2.46 ± 0.053 | 2.64 ± 0.087 | 2.35 ± 0.066 | 2.28 ± 0.07 |
| DLASSKEVLAKIVDLLA [RPN5] | 2.85 ± 0.21 | 3.43 ± 0.24 | 2.98 ± 0.091 | 2.97 ± 0.11 |
| TSFDIKREGRNELQEER [POP6] | 3.46 ± 0.12 | 3.02 ± 0.15 | 3.73 ± 0.11 | 3.27 ± 0.07 |
